Measured values from patent US20090304746A1.
Like-named read-outs stand apart in the source and are kept apart here.

Legend:
HLA-A*1101 (human) [1] = target: HLA-A*1101 (human)
[2] = target: T1, HLA-DR4w15 (DRB1*0405) (human); assay: purified HLA-DR, inhibition of 125I standard peptide, gel filtration
T1 chain 1: not shown
T1 chain 2: not shown

[3] = target: T2, HLA-DR4w4 (DRB1*0401) (human); assay: as above
T2 chain 1: not shown
T2 chain 2: not shown

[4] = target: T3, HLA-DR5w11 (DRB1*1101) (human); assay: as above
T3 chain 1: not shown
T3 chain 2: not shown

[5] = target: T4, HLA-DR6w19 (DRB1*1302) (human); assay: as above
T4 chain 1: not shown
T4 chain 2: not shown

[6] = target: T5, HLA-DR8w2 (DRB1*0802) (human); assay: as above
T5 chain 1: not shown
T5 chain 2: not shown

[7] = target: T6, HLA-DR9 (DRB1*0901) (human); assay: as above
T6 chain 1: not shown
T6 chain 2: not shown

HLA-A*0301 (human) [8] = target: HLA-A*0301 (human)
HLA-A*1101 (human) [9] = target: HLA-A*1101 (human); remark: listed apart in the source
HLA-A*0301 (human) [10] = assay: competition with 125I-labelled standard peptide on purified HLA, gel filtration
HLA-B*0702 (Human) = assay: competition with 125I-labelled standard peptide for purified HLA, gel filtration
HLA-B*3501 (Human) = assay: as above
HLA-B*5101 (Human) = assay: as above
HLA-B*5301 (Human) = assay: as above
HLA-B*5401 (Human) = assay: as above
HLA-A*1101 (human) [11] = target: HLA-A*1101 (human); remark: listed apart in the source
HLA-A*0301 (human) [12] = assay: competition with 125I-labelled standard peptide on purified HLA, gel filtration; remark: listed apart in the source
HLA-A*0301 (human) [13] = target: HLA-A*0301 (human); remark: listed apart in the source
[14] = target: T3, HLA-DR5w11 (DRB1*1101) (human); settings: remark: other sources report otherwise
[15] = target: T4, HLA-DR6w19 (DRB1*1302) (human); settings: remark: other sources report otherwise
[16] = target: T7, HLA-DR7 (DRB1*0701) (human)
T7 chain 1: not shown
T7 chain 2: not shown

[17] = target: T6, HLA-DR9 (DRB1*0901) (human); settings: remark: other sources report otherwise
HLA-A*1101 (human) [18] = target: HLA-A*1101 (human); remark: listed apart in the source
[19] = target: T8, HLA-DR1 (DRB1*0101) (human); assay: purified HLA-DR, inhibition of 125I standard peptide, gel filtration
T8 chain 1: not shown
T8 chain 2: not shown

[20] = target: T7, HLA-DR7 (DRB1*0701) (human); assay: as above
[21] = remark: other sources report otherwise

## VAYQATVCA (modifications not checked) [HCV peptide … (HCV polyprotein position 1592)]
HLA-A*0201 (human)
  binding affinity ratio (IC50 of standard peptide / IC50 of test peptide): 0.0005

## VAYYRGLDV (modifications not checked) [HCV peptide … (HCV polyprotein position 1420)]
HLA-A*0201 (human)
  binding affinity ratio (IC50 of standard peptide / IC50 of test peptide): 0.0001

## YVPESDAAAR (modifications not checked) [… (HCV polyprotein position 1939, 10-mer, A11 motif peptide)]
HLA-A*1101 (human) [1]
  binding affinity ratio (IC50 of standard peptide / IC50 of test peptide): 0.0001

## DVVVVATDALMTGYT (modifications not checked)
[2]; [21]
  relative binding (IC50 of standard peptide / IC50 of test peptide): 0.0072
[3]; [21]
  relative binding (IC50 of standard peptide / IC50 of test peptide): 0.018

## FTGLTHIDAHFLSQT (modifications not checked)
[4]
  relative binding (IC50 of standard peptide / IC50 of test peptide): 0.0083
[5]
  relative binding (IC50 of standard peptide / IC50 of test peptide): 0.0002
[6]
  relative binding (IC50 of standard peptide / IC50 of test peptide): 0.05
[7]
  relative binding (IC50 of standard peptide / IC50 of test peptide): 0.0056

## LIVFPDLGVR (modifications not checked) [HCV peptide … (polyprotein position 2612)]
HLA-A*0301 (human) [8]
  binding affinity ratio (IC50 of standard peptide / IC50 of test peptide): 0.0003

## IVGGVYLLPR (modifications not checked) [HCV peptide … (polyprotein position 30)]
HLA-A*0301 (human) [8]
  binding affinity ratio (IC50 of standard peptide / IC50 of test peptide): 0.0008
HLA-A*1101 (human) [9]
  binding affinity ratio (IC50 of standard peptide / IC50 of test peptide): 0.0056
HLA-A*0301 (human) [10]
  binding affinity ratio (IC50 of standard peptide / IC50 of test peptide): 0.0008

## TLPALSTGL (modifications not checked) [HCV peptide … (HCV polyprotein position 686)]
HLA-A*0201 (human)
  binding affinity ratio (IC50 of standard peptide / IC50 of test peptide): 0.0003

## PPPSWDQMW (modifications not checked)
HLA-B*0702 (Human)
  binding affinity ratio (IC50 standard/IC50 test): 0.0001
HLA-B*3501 (Human)
  binding affinity ratio (IC50 standard/IC50 test): 0.0002
HLA-B*5101 (Human)
  binding affinity ratio (IC50 standard/IC50 test): 0.0001
HLA-B*5301 (Human)
  binding affinity ratio (IC50 standard/IC50 test): 0.0001
HLA-B*5401 (Human)
  binding affinity ratio (IC50 standard/IC50 test): 0.0002

## QPEYDLELI (modifications not checked)
HLA-B*0702 (Human)
  binding affinity ratio (IC50 standard/IC50 test): 0.0001
HLA-B*3501 (Human)
  binding affinity ratio (IC50 standard/IC50 test): 0.0002
HLA-B*5101 (Human)
  binding affinity ratio (IC50 standard/IC50 test): 0.0002
HLA-B*5301 (Human)
  binding affinity ratio (IC50 standard/IC50 test): 0.0001
HLA-B*5401 (Human)
  binding affinity ratio (IC50 standard/IC50 test): 0.0002

## SASQLSAPSLK (modifications not checked) [HCV peptide … (polyprotein position 2207)]
HLA-A*0301 (human) [8]
  binding affinity ratio (IC50 of standard peptide / IC50 of test peptide): 0.0003
HLA-A*1101 (human) [9]
  binding affinity ratio (IC50 of standard peptide / IC50 of test peptide): 0.0044

## NPSVAATLGF (modifications not checked)
HLA-B*0702 (Human)
  binding affinity ratio (IC50 standard/IC50 test): 0.0001
HLA-B*3501 (Human)
  binding affinity ratio (IC50 standard/IC50 test): 0.0001
HLA-B*5101 (Human)
  binding affinity ratio (IC50 standard/IC50 test): 0.0002
HLA-B*5301 (Human)
  binding affinity ratio (IC50 standard/IC50 test): 0.0001
HLA-B*5401 (Human)
  binding affinity ratio (IC50 standard/IC50 test): 0.0003

## TSERSQPRGR (modifications not checked) [… (HCV polyprotein position 52, 10-mer)]
HLA-A*1101 (human) [11]
  binding affinity ratio (IC50 of standard peptide / IC50 of test peptide): 0.0001

## LPVCQDHLEF (modifications not checked)
HLA-B*0702 (Human); [21]
  binding affinity ratio (IC50 standard/IC50 test): 0.0001
HLA-B*5101 (Human); [21]
  binding affinity ratio (IC50 standard/IC50 test): 0.0002
HLA-B*5401 (Human); [21]
  binding affinity ratio (IC50 standard/IC50 test): 0.0003

## KTKRNTNRR (modifications not checked) [HCV peptide … (polyprotein position 10)]
HLA-A*1101 (human) [9]; [21]
  binding affinity ratio (IC50 of standard peptide / IC50 of test peptide): 0.01
HLA-A*0301 (human) [10]
  binding affinity ratio (IC50 of standard peptide / IC50 of test peptide): 0.011
HLA-A*0301 (human) [12]
  binding affinity ratio (IC50 of standard peptide / IC50 of test peptide): 0.011

## TSMLTDPSH (modifications not checked) [… (HCV polyprotein position 2177, 9-mer)]
HLA-A*1101 (human) [11]
  binding affinity ratio (IC50 of standard peptide / IC50 of test peptide): 0.0001

## TSMLTDPSH (modifications not checked) [… (HCV polyprotein position 2177)]
HLA-A*0301 (human) [13]
  binding affinity ratio (IC50 of standard peptide / IC50 of test peptide): 0.0003

## GARLVVLATATPPGS (modifications not checked) [HCV NS3 1345 peptide 1283.24]
[14]
  binding affinity ratio (relative to standard peptide): 0.0094
[15]
  binding affinity ratio (relative to standard peptide): 0.0004
[16]; [21]
  binding affinity ratio (relative to standard peptide): 0.044
[17]
  binding affinity ratio (relative to standard peptide): 0.0067

## LELITSCSSNVSVAH (modifications not checked)
[4]
  relative binding (IC50 of standard peptide / IC50 of test peptide): 0.0008
[5]
  relative binding (IC50 of standard peptide / IC50 of test peptide): 0.051
[6]
  relative binding (IC50 of standard peptide / IC50 of test peptide): 0.0003
[7]
  relative binding (IC50 of standard peptide / IC50 of test peptide): 0.033

## TTIMAKNEVFCVQPE (modifications not checked) [HCV NS5 2589 peptide 1283.51]
[16]; [21]
  binding affinity ratio (relative to standard peptide): 0.0025

## WLLSPRGSR (modifications not checked) [… (HCV polyprotein position 96, 9-mer, A11 motif peptide)]
HLA-A*1101 (human) [1]
  binding affinity ratio (IC50 of standard peptide / IC50 of test peptide): 0.0005

## GGRHLIFCH (modifications not checked) [… (HCV polyprotein position 1392)]
HLA-A*1101 (human) [18]
  binding affinity ratio (IC50 of standard peptide / IC50 of test peptide): 0.0001

## TLHGPTPLL (modifications not checked) [HCV peptide … (HCV polyprotein position 1622)]
HLA-A*0201 (human)
  binding affinity ratio (IC50 of standard peptide / IC50 of test peptide): 0.007

## QPGYPWPLY (modifications not checked)
HLA-B*0702 (Human)
  binding affinity ratio (IC50 standard/IC50 test): 0.0001
HLA-B*5101 (Human)
  binding affinity ratio (IC50 standard/IC50 test): 0.0002
HLA-B*5301 (Human)
  binding affinity ratio (IC50 standard/IC50 test): 0.0001
HLA-B*5401 (Human)
  binding affinity ratio (IC50 standard/IC50 test): 0.0002

## TGLTHIDAH (modifications not checked) [… (HCV polyprotein position 1568)]
HLA-A*0301 (human) [13]
  binding affinity ratio (IC50 of standard peptide / IC50 of test peptide): 0.0003

## CGPVYCFTPSPVVVG (modifications not checked)
[19]
  relative binding (IC50 of standard peptide / IC50 of test peptide): 0.27
[2]
  relative binding (IC50 of standard peptide / IC50 of test peptide): 0.4
[3]
  relative binding (IC50 of standard peptide / IC50 of test peptide): 0.26

## PTDPRRRSR (modifications not checked) [HCV peptide … (polyprotein position 109)]
HLA-A*1101 (human) [9]
  binding affinity ratio (IC50 of standard peptide / IC50 of test peptide): 0.0005
HLA-A*0301 (human) [12]
  binding affinity ratio (IC50 of standard peptide / IC50 of test peptide): 0.0008

## TSERSQPRGR (modifications not checked) [… (HCV polyprotein position 52)]
HLA-A*0301 (human) [13]
  binding affinity ratio (IC50 of standard peptide / IC50 of test peptide): 0.0003

## IAFASRGNH (modifications not checked) [HCV peptide … (polyprotein position 1925)]
HLA-A*0301 (human) [10]
  binding affinity ratio (IC50 of standard peptide / IC50 of test peptide): 0.0003

## TGLTHIDAH (modifications not checked) [… (HCV polyprotein position 1568, 9-mer)]
HLA-A*1101 (human) [11]
  binding affinity ratio (IC50 of standard peptide / IC50 of test peptide): 0.0001

## VAYQATVCAR (modifications not checked) [… (HCV polyprotein position 1592)]
HLA-A*0301 (human) [13]
  binding affinity ratio (IC50 of standard peptide / IC50 of test peptide): 0.0005

## RQEMGGNITRVESEN (modifications not checked) [HCV NS5 2243 peptide 1283.49]
[16]
  binding affinity ratio (relative to standard peptide): 0.0002

## GVLAALAAY (modifications not checked) [… (HCV polyprotein position 1670)]
HLA-A*1101 (human) [18]
  binding affinity ratio (IC50 of standard peptide / IC50 of test peptide): 0.011

## VAYQATVCAR (modifications not checked) [… (HCV polyprotein position 1592, 10-mer)]
HLA-A*1101 (human) [11]
  binding affinity ratio (IC50 of standard peptide / IC50 of test peptide): 0.0038

## VYCFTPSPVVVGTTD (modifications not checked)
[4]
  relative binding (IC50 of standard peptide / IC50 of test peptide): 0.0056
[5]
  relative binding (IC50 of standard peptide / IC50 of test peptide): 0.0001
[20]
  relative binding (IC50 of standard peptide / IC50 of test peptide): 0.074
[7]
  relative binding (IC50 of standard peptide / IC50 of test peptide): 0.18

## PVVVGTTDR (modifications not checked) [HCV peptide … (polyprotein position 516)]
HLA-A*0301 (human) [8]
  binding affinity ratio (IC50 of standard peptide / IC50 of test peptide): 0.0008
HLA-A*1101 (human) [9]
  binding affinity ratio (IC50 of standard peptide / IC50 of test peptide): 0.0005
